Substitutions are numbered along the chain they refer to.
B1: NEG026 (antibody, human IgG1, kappa, V domains shown)
VH: EVQLVESGGGLVQPGGSLRLSCAASGFTFSDYYMAWVRQAPGKGLEWVANINQNTGSTYYVDSVQGRFTISRDNAKNSLYLQMNSLRAEDTAVYYCARGDYYGTTYWYFDVWGQGTTVTVSS
VL: EIVMTQSPATLSLSPGERATLSCRASQDISNYLNWYQQKPGQAPRLLIYYTSRLQSGIPARFSGSGSGTDYTLTISSLEPEDFAVYYCQQGKKLWSFGGGTKVEIKR
notes: Humanized, optimized variant of 9P3; human IgG1 kappa
B2: NEG086 (antibody, human IgG1, kappa, V domains shown)
VH: B1 VH with N54I, T55A
VL: DIQMTQSPSSLSASVGDRVTITCRASQSISSYLNWYQQKPGKAPKLLIYYTSRLQSGVPSRFSGSGSGTDFTLTISSLQPEDFATYYCQQGRRLWSFGGGTKVEIKR
notes: as for B1
B3: NEG027 (antibody, human IgG1, kappa, V domains shown)
VH: B1 VH with N50S, V61L, Q65R
VL: B1 VL
notes: as for B1
B4: NEG024 (antibody, human IgG1, kappa, V domains shown)
VH: B1 VH with N54I, T55A, V61L, Q65R
VL: B1 VL
notes: as for B1
B5: NEG087 (antibody, human IgG1, kappa, V domains shown)
VH: B1 VH with N50S, V61L, Q65R
VL: B2 VL
notes: as for B1
B6: NEG085 (antibody, human IgG1, kappa, V domains shown)
VH: B1 VH with T28A, D31G, Q53Y, N54P, T55G, G56S, V61L, Q65K
VL: B2 VL
B7: anti-cKIT antibody 9P3 (antibody, V domains shown)
VH: EVRLVESEGGLVQPRSSMKLSCTASGFTFSDYYMAWVRQVPEKGLEWVANINYDGSSTYYLDSLKSRFIISRDNAKNILYLQMSSLKSEDTATYYCARGDYYGTTYWYFDVWGTGTTVTVSS
VL: DIQMTQTTSSLSASLGDRVTISCRASQDISNYLNWYQQKPDGTVKLLIYYTSRLQSGVPSRFSGSGSGTDYSLTISNLEQEDIATYFCQQGKKLWSFGGGTKLEIKR
notes: Hybridoma-derived mouse variable domains
B8: 20507 (antibody, human IgG1, kappa, V domains shown)
VH: QVQLVQSGAEVKKPGSSVKVSCKASGGTFSSYAISWVRQAPGQGLEWMGTIGPFEGQPRYAQKFQGRVTITADESTSTAYMELSSLRSEDTAVYYCARGGYISDFDVWGQGTLVTVSS
VL: DIQMTQSPSSLSASVGDRVTITCRASQSISNYLAWYQQKPGKAPKLLIYDASSLQSGVPSRFSGSGSGTDFTLTISSLQPEDFATYYCQQYYYESITFGQGTKVEIKR
notes: HuCAL-derived human IgG1 kappa
B9: 20376 (antibody, human IgG1, lambda, V domains shown)
VH: QVQLVQSGAEVKKPGSSVKVSCKASGGTFSSYAISWVRQAPGQGLEWMGGIIPMSGRTTYAQKFQGRVTITADESTSTAYMELSSLRSEDTAVYYCARDYGPEAPDYGQSTSYFWYYAFDPWGQGTLVTVSS
VL: DIELTQPPSVSVSPGQTASITCSGDNIPSYFVHWYQQKPGQAPVLVIYDDNDRPSGIPERFSGSNSGNTATLTISGTQAEDEADYYCSSWDQDTVVFGGGTKLTVLG

Target: T1, Human cKIT D1-3 (ECD subdomains 1-3, ligand binding domain) (human, UniProt P10721 26-311)
T1 construct: also called cKIT subdomains 1-3
T1 sequence (P10721 other isoform, or with tags, fused parts or gaps limits assumed): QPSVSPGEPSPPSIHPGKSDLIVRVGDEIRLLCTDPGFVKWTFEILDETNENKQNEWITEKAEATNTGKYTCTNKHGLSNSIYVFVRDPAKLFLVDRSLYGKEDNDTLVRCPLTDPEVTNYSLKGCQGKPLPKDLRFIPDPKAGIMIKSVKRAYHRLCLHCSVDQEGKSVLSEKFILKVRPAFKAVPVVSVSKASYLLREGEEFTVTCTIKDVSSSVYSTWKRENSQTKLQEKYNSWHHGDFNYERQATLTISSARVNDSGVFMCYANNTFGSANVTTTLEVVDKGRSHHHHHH
Assay: ELISA on coated cKIT ECD subdomains

Question: Does B1 bind?
Answer: binds

Target: T2, Mouse cKIT ECD, C-terminal 6x His (Sino Biological Inc, catalog number 50530-M08H) (mouse, UniProt P05532 25-527)
T2 construct: extracellular domain; Bought protein; not shown: C-terminal 6x His tag
T2 sequence (looked up): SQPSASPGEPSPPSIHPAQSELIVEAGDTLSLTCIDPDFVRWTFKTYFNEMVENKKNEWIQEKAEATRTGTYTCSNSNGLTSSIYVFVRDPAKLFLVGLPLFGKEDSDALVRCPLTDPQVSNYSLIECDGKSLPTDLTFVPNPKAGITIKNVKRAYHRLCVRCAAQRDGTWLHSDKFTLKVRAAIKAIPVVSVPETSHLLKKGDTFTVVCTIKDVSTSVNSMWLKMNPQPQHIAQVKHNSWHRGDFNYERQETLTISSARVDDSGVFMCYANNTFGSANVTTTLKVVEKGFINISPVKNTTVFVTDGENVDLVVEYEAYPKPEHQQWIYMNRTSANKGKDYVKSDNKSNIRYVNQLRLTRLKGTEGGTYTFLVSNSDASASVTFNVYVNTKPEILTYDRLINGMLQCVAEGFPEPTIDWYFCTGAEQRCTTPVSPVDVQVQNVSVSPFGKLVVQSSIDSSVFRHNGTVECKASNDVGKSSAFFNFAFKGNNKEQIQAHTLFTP
Assay: SPR (Biacore 2000): antibody captured by anti-human Fc, cKIT ECD in solution
Protocol: (§1) Affinity of the antibodies to cKIT species orthologues and also to cKIT was determined using SPR technology using a Biacore® 2000 instrument (GE Healthcare, Pittsburgh, Pa.) and with CM5 sensor chips.
(§2) Briefly, HBS-P (0.01 M HEPES, pH 7.4, 0.15 M NaCl, 0.005% Surfactant P20) supplemented with 2% Odyssey® blocking buffer (Li-Cor Biosciences, Lincoln, Nebr.) was used as the running buffer for all the experiments. The immobilization level and analyte interactions were measured by response unit (RU).
(§3) For kinetic measurements, the experiments were performed in which the antibodies were captured to the sensor chip surface via the immobilized anti-human Fc antibody and the ability of the cKIT proteins to bind in free solution was determined. […] 0.1-1 μg/ml of test antibodies were then injected at 10 μl/min for 1 minute. […] Subsequently, 3.125-50 nM of cKIT receptor extracellular domains (ECD) were diluted in a 2-fold series and injected at a flow rate of 40 μl/min for 3 min over both reference and test flow cells. Table of tested ECDs is listed below (Table 6). Dissociation of the binding was followed for 10 min. After each injection cycle, the chip surface was regenerated with 3 M MgCl₂ at 10 μl/min for 30 seconds.

Question: Does B2 bind?
Answer: no binding (tested: 3.125-50 nM ECD injected)

Question: Does B3 bind?
Answer: no binding (tested: 3.125-50 nM ECD injected)

Question: Does B4 bind?
Answer: no binding (tested: 3.125-50 nM ECD injected)

Question: Does B1 bind?
Answer: no binding (tested: 3.125-50 nM ECD injected)

Question: Does B5 bind?
Answer: no binding (tested: 3.125-50 nM ECD injected)

Question: Does B6 bind?
Answer: no binding (tested: 3.125-50 nM ECD injected)

Question: Does B7 bind?
Answer: no binding (tested: 3.125-50 nM ECD injected)

Question: Does B8 bind?
Answer: no binding (tested: 3.125-50 nM ECD injected)

Target: T3, Rat cKIT D1-5, C-terminal mFc (rat)
T3 construct: The whole entry is rat cKIT ECD residues 25-526, a linker and a mouse Fc tag; also called rat cKIT-mFc
T3 chain: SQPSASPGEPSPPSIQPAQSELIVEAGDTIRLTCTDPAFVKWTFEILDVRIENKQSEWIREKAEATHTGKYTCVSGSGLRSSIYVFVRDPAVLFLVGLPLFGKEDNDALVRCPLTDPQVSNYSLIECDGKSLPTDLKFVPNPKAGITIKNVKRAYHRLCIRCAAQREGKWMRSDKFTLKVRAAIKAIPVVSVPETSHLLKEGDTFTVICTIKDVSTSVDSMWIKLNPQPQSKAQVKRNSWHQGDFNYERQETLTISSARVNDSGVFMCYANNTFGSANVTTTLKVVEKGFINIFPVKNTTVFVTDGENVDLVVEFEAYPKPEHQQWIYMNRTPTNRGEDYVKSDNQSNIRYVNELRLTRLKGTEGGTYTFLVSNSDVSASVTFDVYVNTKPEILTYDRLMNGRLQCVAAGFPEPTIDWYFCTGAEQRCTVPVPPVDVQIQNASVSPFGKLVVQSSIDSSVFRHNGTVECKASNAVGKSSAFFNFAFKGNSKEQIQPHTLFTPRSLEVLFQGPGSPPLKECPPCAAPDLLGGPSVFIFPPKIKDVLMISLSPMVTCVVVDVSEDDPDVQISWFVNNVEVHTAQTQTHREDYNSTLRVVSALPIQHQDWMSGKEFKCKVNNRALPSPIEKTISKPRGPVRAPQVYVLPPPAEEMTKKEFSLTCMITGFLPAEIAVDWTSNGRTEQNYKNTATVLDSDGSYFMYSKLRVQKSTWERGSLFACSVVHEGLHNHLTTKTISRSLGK
Assay: as above
Protocol: as §1, §2, §3

Question: Does B9 bind?
Answer: no binding (tested: 3.125-50 nM ECD injected)

Question: Does B2 bind?
Answer: no binding (tested: 3.125-50 nM ECD injected)

Question: Does B3 bind?
Answer: no binding (tested: 3.125-50 nM ECD injected)

Question: Does B4 bind?
Answer: no binding (tested: 3.125-50 nM ECD injected)

Question: Does B1 bind?
Answer: no binding (tested: 3.125-50 nM ECD injected)

Question: Does B5 bind?
Answer: no binding (tested: 3.125-50 nM ECD injected)

Question: Does B6 bind?
Answer: no binding (tested: 3.125-50 nM ECD injected)

Question: Does B7 bind?
Answer: no binding (tested: 3.125-50 nM ECD injected)

Question: Does B8 bind?
Answer: no binding (tested: 3.125-50 nM ECD injected)

Target: T4, Human cKIT D1-5 (human cKIT ECD, C-terminal 6x His) (human, UniProt P10721 26-524)
T4 construct: also called human cKIT-His
T4 sequence (P10721 other isoform, or with tags, fused parts or gaps limits assumed): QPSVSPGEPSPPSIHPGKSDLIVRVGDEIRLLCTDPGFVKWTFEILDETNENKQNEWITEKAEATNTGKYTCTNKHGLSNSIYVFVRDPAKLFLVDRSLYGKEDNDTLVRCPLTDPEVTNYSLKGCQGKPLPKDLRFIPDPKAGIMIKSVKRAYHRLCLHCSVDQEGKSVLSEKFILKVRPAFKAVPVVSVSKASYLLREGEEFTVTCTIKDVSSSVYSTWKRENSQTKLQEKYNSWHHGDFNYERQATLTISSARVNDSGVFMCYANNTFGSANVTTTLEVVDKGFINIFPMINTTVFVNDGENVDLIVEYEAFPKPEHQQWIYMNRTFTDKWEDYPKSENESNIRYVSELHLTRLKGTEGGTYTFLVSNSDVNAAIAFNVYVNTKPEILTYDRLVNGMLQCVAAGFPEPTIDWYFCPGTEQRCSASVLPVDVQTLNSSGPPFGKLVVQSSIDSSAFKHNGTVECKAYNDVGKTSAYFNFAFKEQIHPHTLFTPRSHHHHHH
Assay: SPR (Biacore 2000): antibody captured by anti-human Fc on CM5, cKIT ECD in solution, 25 C, 1:1 fit
Protocol: as §1, §2, §3

Question: With B9 as the binder, how does the Kd read?
Answer: 9.1 nM

Question: With B2 as the binder, how does the Kd read?
Answer: 1.44 nM

Question: B3 was tested. Which Kd did it give?
Answer: 1.34 nM

Question: With B4 as the binder, how does the Kd read?
Answer: 1.31 nM

Question: How did the Kd turn out when B5 was run?
Answer: 1.13 nM

Question: For B6, which Kd is on record?
Answer: 8.4 nM

Question: Which Kd does the source give for B7 here?
Answer: 20 nM

Target: T5, Cynomolgus monkey cKIT D1-5 (cyno cKIT ECD, C-terminal 6x His) (cynomolgus monkey, UniProt P10721 25-520 (human entry))
T5 construct: The signal peptide is not part of the protein in the assay; The entry includes the C-terminal His tag; also called cynomolgus monkey ECD
T5 chain: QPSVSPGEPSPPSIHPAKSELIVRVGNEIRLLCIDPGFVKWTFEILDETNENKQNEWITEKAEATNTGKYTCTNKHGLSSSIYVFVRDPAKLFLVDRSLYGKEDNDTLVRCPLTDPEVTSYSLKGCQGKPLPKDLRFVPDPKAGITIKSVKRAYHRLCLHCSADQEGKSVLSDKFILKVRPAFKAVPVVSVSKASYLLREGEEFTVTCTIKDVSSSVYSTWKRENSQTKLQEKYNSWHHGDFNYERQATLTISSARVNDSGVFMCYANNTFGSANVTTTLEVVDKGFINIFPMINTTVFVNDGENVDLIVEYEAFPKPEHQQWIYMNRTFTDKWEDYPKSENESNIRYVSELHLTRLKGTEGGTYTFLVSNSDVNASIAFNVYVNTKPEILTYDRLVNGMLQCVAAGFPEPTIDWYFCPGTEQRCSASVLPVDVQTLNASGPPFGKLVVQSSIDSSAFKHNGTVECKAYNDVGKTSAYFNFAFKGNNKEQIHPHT
Assay: as above
Protocol: as §1, §2, §3

Question: Which Kd does the source give for B9 here?
Answer: 4.8 nM

Question: How did the Kd turn out when B2 was run?
Answer: 1.34 nM

Question: With B4 as the binder, how does the Kd read?
Answer: 1.15 nM

Question: B5 was tested. Which Kd did it give?
Answer: 1.39 nM

Question: How did the Kd turn out when B6 was run?
Answer: 6.14 nM

Question: Which Kd does the source give for B8 here?
Answer: 0.56 nM

Target: T2, Mouse cKIT ECD, C-terminal 6x His (Sino …)
Assay: as above
Protocol: as §1, §2, §3

Question: Which Kd does the source give for B9 here?
Answer: 2.5 nM

— patent US20180193475A1 (Novartis, published 2018)
